PMC6008332, “Nuclear PTEN safeguards pre-mRNA splicing to link Golgi apparatus for its tumor suppressive role” (Nature Communications, 2018)

Columns and labels:
Conditions in all cases: both partners purified
His-tagged U2AF2 = biological target: T1, His-tagged U2AF2 (UniProt P26368 1-475); experiment: pull-down; 15 μg His-tagged U2AF2 mixed with 4 μg GST or GST-PTEN bound to glutathione-sepharose beads in 0.5 ml binding buffer, overnight at 4 °C; immunoblot for His and GST
T1 construct: Recombinant full-length U2AF2; also called His-U2AF2; source: E. coli (pET-28a), purified (nickel chelating, ion exchange, gel filtration)

[1] = biological target: T2, GST-tagged U2AF2 on the human proteome microarray (human, UniProt P26368 1-475); experiment: peptide or protein array; human proteome microarray of 20,240 N-terminally GST-tagged proteins probed with 5 μg/5 ml Biotin-labeled His-PTEN, 1 h room temperature; Cy5-conjugated streptavidin; cutoff SNR ≥3 and fold change ≥5
T2 construct: U2AF2 spotted on the human proteome microarray; also called U2AF2 (HPM); source: bought: human proteome microarray (ProtoArray Human Protein Microarray, Wayen Biotechnologies); not shown: GST, N-terminal, kept

[2] = biological target: T3, GST-tagged SF3B4 on the human proteome microarray (human, UniProt Q15427 1-424); experiment: as above
T3 construct: SF3B4 spotted on the human proteome microarray; also called SF3B4 (HPM); source: bought: human proteome microarray (ProtoArray Human Protein Microarray, Wayen Biotechnologies); not shown: GST, N-terminal, kept
T3 sequence (looked up): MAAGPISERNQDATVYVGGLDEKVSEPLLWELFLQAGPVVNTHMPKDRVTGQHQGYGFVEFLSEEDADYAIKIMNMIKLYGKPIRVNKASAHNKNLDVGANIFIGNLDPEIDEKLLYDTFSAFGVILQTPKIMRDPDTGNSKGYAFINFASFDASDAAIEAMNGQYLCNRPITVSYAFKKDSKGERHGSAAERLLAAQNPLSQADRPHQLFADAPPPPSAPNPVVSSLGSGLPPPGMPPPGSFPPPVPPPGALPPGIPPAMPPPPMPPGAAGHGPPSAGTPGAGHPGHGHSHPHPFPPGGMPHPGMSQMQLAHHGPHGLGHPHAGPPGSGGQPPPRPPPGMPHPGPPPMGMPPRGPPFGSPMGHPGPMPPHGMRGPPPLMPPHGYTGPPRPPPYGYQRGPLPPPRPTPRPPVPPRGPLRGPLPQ

[3] = biological target: T4, GST-tagged HNRNPK on the human proteome microarray (human, UniProt P61978 1-463); experiment: as above
T4 construct: HNRNPK spotted on the human proteome microarray; also called HNRNPK (HPM); source: bought: human proteome microarray (ProtoArray Human Protein Microarray, Wayen Biotechnologies); not shown: GST, N-terminal, kept

[4] = biological target: T5, GST-tagged HNRNPU on the human proteome microarray (human, UniProt Q00839 1-825); experiment: as above
T5 construct: HNRNPU spotted on the human proteome microarray; also called HNRNPU (HPM); source: bought: human proteome microarray (ProtoArray Human Protein Microarray, Wayen Biotechnologies); not shown: GST, N-terminal, kept

[5] = biological target: T6, GST-tagged USP7 (HAUSP7) on the human proteome microarray (human, UniProt Q93009 1-1102); experiment: as above
T6 construct: USP7 spotted on the human proteome microarray; source: bought: human proteome microarray (ProtoArray Human Protein Microarray, Wayen Biotechnologies); not shown: GST, N-terminal, kept

[6] = biological target: T7, GST-tagged APC3 (CDC27) on the human proteome microarray (human, UniProt P30260 1-824); experiment: as above
T7 construct: APC3 (CDC27) spotted on the human proteome microarray; source: bought: human proteome microarray (ProtoArray Human Protein Microarray, Wayen Biotechnologies); not shown: GST, N-terminal, kept

Measured: binding result

B1: GST-tagged PTEN (natural protein)
chain: not shown
notes: PTEN CDS inserted into the pEGX-4T-3 vector (so in the source); also called GST-PTEN
binds: His-tagged U2AF2

B2: Biotin-labeled His-PTEN (natural protein)
chain: not shown
modifications: biotin (sites not given)
notes: Recombinant full-length PTEN; also called biotinylated PTEN protein; PTEN−biotin conjugates; source: E. coli (pET-28a), purified (nickel chelating, ion exchange, gel filtration), labeled with biotin
not listed: His-tagged U2AF2
binds: all other assays above
